Numbering of substitutions follows the chain as printed. Names may count otherwise.
What was measured:
[1] = molecular target: mouse Slitrk2 LRR1 (first leucine-rich repeat of Slit and Trk-like family member 2), wild type (UniProt Q810C0); assay: SPR equilibrium analysis; conditions: point at 4 µM PTPδ Ig1-Fn1 (highest concentration); Slitrk2 LRR1 immobilized on a CM5 sensor tip; parent: est. 600; read off a plot
[2] = molecular target: T1, mouse Slitrk2 LRR1 (first leucine-rich repeat of Slit and Trk-like family member 2), wild type (mouse, UniProt Q810C0 1-266, N-linked glycans); assay: SPR
T1 chain: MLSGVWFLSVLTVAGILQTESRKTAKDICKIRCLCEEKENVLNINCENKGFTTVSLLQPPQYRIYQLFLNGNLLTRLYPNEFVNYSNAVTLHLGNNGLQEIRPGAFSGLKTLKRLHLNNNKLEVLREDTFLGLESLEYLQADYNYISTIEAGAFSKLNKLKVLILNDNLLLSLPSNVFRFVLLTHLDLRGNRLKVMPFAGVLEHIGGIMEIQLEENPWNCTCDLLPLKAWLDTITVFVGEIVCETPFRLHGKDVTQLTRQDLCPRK

[3] = molecular target: T2, mouse Slitrk2 LRR1 (first leucine-rich repeat of Slit and Trk-like family member 2), wild type, Q810C0; assay: SPR equilibrium analysis; conditions: chain shown with the change, Slitrk2 LRR1 immobilized on a CM5 sensor tip
T2 chain: T1 chain

[4] = molecular target: T3, mouse Slitrk2 LRR1 F247A H250A (mouse, UniProt Q810C0 1-266, F247A | H250A); assay: SPR
T3 sequence: T1 chain with F247A, H250A

mouse Slitrk2 LRR1 R114A = molecular target: T4, mouse Slitrk2 LRR1 R114A (mouse, UniProt Q810C0 1-266, R114A); assay: SPR
T4 sequence: T1 chain with R114A

[5] = molecular target: mouse Slitrk2 LRR1 (first leucine-rich repeat of Slit and Trk-like family member 2), wild type (mouse) (UniProt Q810C0); assay: crystal structure; Slitrk2 LRR1 and PTPδ Ig1-Fn1 mixed at a molar ratio of 1:1, treated with neuraminidase; sitting drop vapor diffusion, 293 K, 15% PEG4000, 0.1 M sodium acetate, 0.1 M MES (pH 6.0); 3.35 Å

A response (Response unit) [1] of 97 was found for “mouse PTPδ Ig1-Fn1 (residues 28-418), splice variant meA9B+ (from UniProt Q64487) R236E” in this work.

B1: mouse PTPδ Ig1-Fn1, splice variant meA-B+ (domain or fragment)
chain: ETPPRFTRTPVDQTGVSGGVASFICQATGDPRPKIVWNKKGKKVSNQRFEVIEFDDGSGSVLRIQPLRTPRDEAIYECVASNNVGEISVSTRLTVLREDQIPRGFPTIDMGPQLKVVERTRTATMLCAASGNPDPEITWFKDFLPVDTSNNNGRIKQLRSGALQIEQSEESDQGKYECVATNSAGTRYSAPANLYVRELREVRRVPPRFSIPPTNHEIMPGGSVNITCVAVGSPMPYVKWMLGAEDLTPEDDMPIGRNVLELNDVRQSANYTCVAMSTLGVIEAIAQITVKALPKPPGTPVVTESTATSITLTWDSGNPEPVSYYIIQHKPKNSEEPYKEIDGIATTRYSVAGLSPYSDYEFRVVAVNNIGRGPASEPVLTQ
A Kd [2] of 451 nM was found for B1 in this work.

B2: mouse PTPδ Ig1-Fn1 (residues 28-418), splice variant meA9B+, Q64487 Y273A (protein)
chain: ETPPRFTRTPVDQTGVSGGVASFICQATGDPRPKIVWNKKGKKVSNQRFEVIEFDDGSGSVLRIQPLRTPRDEAIYECVASNNVGEISVSTRLTVLREDQIPRGFPTIDMGPQLKVVERTRTATMLCAASGNPDPEITWFKDFLPVDTSNNNGRIKQLRSESIGGTPIRGALQIEQSEESDQGKYECVATNSAGTRYSAPANLYVRELREVRRVPPRFSIPPTNHEIMPGGSVNITCVAVGSPMPAVKWMLGAEDLTPEDDMPIGRNVLELNDVRQSANYTCVAMSTLGVIEAIAQITVKALPKPPGTPVVTESTATSITLTWDSGNPEPVSYYIIQHKPKNSEEPYKEIDGIATTRYSVAGLSPYSDYEFRVVAVNNIGRGPASEPVLTQ
A Kd ([3]; PTPδ Ig1-Fn1 injected, parent: 355.5 ± 6.5 nM) of 312 nM and a response (Response unit) ([3]; point at 4 µM PTPδ Ig1-Fn1 (highest concentration), parent: est. 600, read off a …) of 500 were found for B2 in this work.

B3: mouse PTPδ Ig1-Fn1 (residues 28-418), splice variant meA9B+ (domain or fragment)
chain: B2 chain with A246Y
modifications: N-linked glycans
A Kd [2] of 356 nM, a Kd [4] of 580 nM and a Kd (mouse Slitrk2 LRR1 R114A) of 257 nM were found for B3 in this work. The stoichiometry N [5] was 1.

— publication PMC4437028 (2015)
